In the supplement of paper PMC10065799, “High-throughput profiling of sequence recognition by tyrosine kinases and SH2 domains using bacterial peptide display” (eLife, 2023):

The sequences below were run against Fyn (UniProt P06241) (assay: phosphorylation enrichment, bacterial display (enrichment ratio); higher = better substrate or ligand; peptides without Tyr show the background).
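Also: 11-residue human phosphosite peptides and single-mutation variants displayed on the E. coli surface, counted by deep sequencing, each peptide's frequency after selection divided by its frequency in the unselected input library; frequency after pTyr selection over input frequency; kinase dosed for 20-30% of maximal phosphorylation in three min.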

| Sequence | phosphorylation enrichment |
| --- | --- |
| CTTIHYNFMCT [TP53_Y234_N239T_YF] | 0.459 |
| TFHNTYHSHMR [IL1RAPL1_Y615_Q618H] | 0.4 |
| KATKGYLDDPT [G6PD_Y322_E317K] | 0.405 |
| ICANKYMVESC [RPL10_Y75_K78E] | 0.47 |
| GHEFIYVDPMQ [PDGFRA_Y574_YF] | 2.2 |
| MSGDVYSTDFF [NTRK2_Y702_R699G_YF] | 5.33 |
| PAEPRYRARQR [KCNJ11_Y26] | 0.746 |
| AKRKNYAPVTM [CFAP47_Y557_A561T] | 0.387 |
| TVNIRYLLFPS [SERAC1_Y548_S543T] | 0.577 |
| ESSKAYERDLS [TTC37_Y1074_A1077D] | 0.419 |
| RLCQDYDTIGP [ANK1_Y1073] | 0.838 |
| ELPQTYCVSGP [DYSF_Y1684_G1679E] | 0.469 |
| RCKNHYAAFSV [C1QTNF1_Y145_S143N] | 0.415 |
| SARFPYLMAEK [LDHB_Y173_R172P] | 0.315 |
| SKDQICPMKLK [RANBP17_Y823_Y823C] | 0.599 |
| LIDGYYRLTAD [JAK2_Y373] | 1.71 |

The sequences below were run on Fer (mouse) in the same assay as above.

| Sequence | phosphorylation enrichment |
| --- | --- |
| CTTIHYNFMCT [TP53_Y234_N239T_YF] | 0.501 |
| TFHNTYHSHMR [IL1RAPL1_Y615_Q618H] | 0.44 |
| KATKGYLDDPT [G6PD_Y322_E317K] | 0.329 |
| ICANKYMVESC [RPL10_Y75_K78E] | 0.455 |
| GHEFIYVDPMQ [PDGFRA_Y574_YF] | 1.91 |
| MSGDVYSTDFF [NTRK2_Y702_R699G_YF] | 0.775 |
| PAEPRYRARQR [KCNJ11_Y26] | 0.673 |
| AKRKNYAPVTM [CFAP47_Y557_A561T] | 0.286 |
| TVNIRYLLFPS [SERAC1_Y548_S543T] | 0.564 |
| ESSKAYERDLS [TTC37_Y1074_A1077D] | 0.519 |
| RLCQDYDTIGP [ANK1_Y1073] | 1.05 |
| ELPQTYCVSGP [DYSF_Y1684_G1679E] | 0.515 |
| RCKNHYAAFSV [C1QTNF1_Y145_S143N] | 0.488 |
| SARFPYLMAEK [LDHB_Y173_R172P] | 0.389 |
| SKDQICPMKLK [RANBP17_Y823_Y823C] | 0.614 |
| LIDGYYRLTAD [JAK2_Y373] | 1.54 |

The sequences below were run against EPHB2 (UniProt P29323) in the same assay as above.
Chain of EPHB2 (P29323 whole entry, looked up): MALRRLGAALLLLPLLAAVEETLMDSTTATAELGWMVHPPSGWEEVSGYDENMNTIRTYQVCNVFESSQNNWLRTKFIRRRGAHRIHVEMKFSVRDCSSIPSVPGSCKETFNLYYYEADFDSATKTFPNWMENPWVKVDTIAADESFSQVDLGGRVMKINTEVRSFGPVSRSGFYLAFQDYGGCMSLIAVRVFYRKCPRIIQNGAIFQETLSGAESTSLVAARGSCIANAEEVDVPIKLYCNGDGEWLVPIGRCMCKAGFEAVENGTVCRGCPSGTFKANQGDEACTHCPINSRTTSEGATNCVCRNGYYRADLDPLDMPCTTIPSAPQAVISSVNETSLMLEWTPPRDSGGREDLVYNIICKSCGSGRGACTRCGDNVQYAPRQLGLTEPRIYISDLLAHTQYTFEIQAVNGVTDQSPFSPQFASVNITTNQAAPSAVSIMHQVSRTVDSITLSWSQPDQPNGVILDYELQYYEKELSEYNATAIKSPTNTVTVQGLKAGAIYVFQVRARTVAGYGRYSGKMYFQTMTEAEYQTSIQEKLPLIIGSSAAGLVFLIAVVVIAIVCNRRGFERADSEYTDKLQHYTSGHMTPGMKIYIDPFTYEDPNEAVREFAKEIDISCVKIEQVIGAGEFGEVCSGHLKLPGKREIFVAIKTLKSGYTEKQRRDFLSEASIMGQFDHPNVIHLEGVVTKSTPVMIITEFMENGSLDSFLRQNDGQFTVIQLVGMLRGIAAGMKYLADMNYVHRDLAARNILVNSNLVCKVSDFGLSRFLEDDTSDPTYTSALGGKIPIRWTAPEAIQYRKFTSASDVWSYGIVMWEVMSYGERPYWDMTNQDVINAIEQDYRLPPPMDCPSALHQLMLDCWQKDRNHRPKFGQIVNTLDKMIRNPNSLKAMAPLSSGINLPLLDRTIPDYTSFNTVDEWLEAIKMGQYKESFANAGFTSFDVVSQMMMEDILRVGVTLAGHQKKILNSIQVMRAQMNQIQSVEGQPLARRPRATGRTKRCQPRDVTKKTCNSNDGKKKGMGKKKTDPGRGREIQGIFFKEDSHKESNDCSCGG

| Sequence | phosphorylation enrichment |
| --- | --- |
| CTTIHYNFMCT [TP53_Y234_N239T_YF] | 0.485 |
| TFHNTYHSHMR [IL1RAPL1_Y615_Q618H] | 0.485 |
| KATKGYLDDPT [G6PD_Y322_E317K] | 0.603 |
| ICANKYMVESC [RPL10_Y75_K78E] | 0.502 |
| GHEFIYVDPMQ [PDGFRA_Y574_YF] | 6.63 |
| MSGDVYSTDFF [NTRK2_Y702_R699G_YF] | 1.32 |
| PAEPRYRARQR [KCNJ11_Y26] | 0.722 |
| AKRKNYAPVTM [CFAP47_Y557_A561T] | 0.364 |
| TVNIRYLLFPS [SERAC1_Y548_S543T] | 0.725 |
| ESSKAYERDLS [TTC37_Y1074_A1077D] | 0.488 |
| RLCQDYDTIGP [ANK1_Y1073] | 3.94 |
| ELPQTYCVSGP [DYSF_Y1684_G1679E] | 0.532 |
| RCKNHYAAFSV [C1QTNF1_Y145_S143N] | 0.562 |
| SARFPYLMAEK [LDHB_Y173_R172P] | 0.416 |
| SKDQICPMKLK [RANBP17_Y823_Y823C] | 0.565 |
| LIDGYYRLTAD [JAK2_Y373] | 2.08 |

What follows are sequences tested on c-Src in the same assay as above.

| Sequence | phosphorylation enrichment |
| --- | --- |
| CTTIHYNFMCT [TP53_Y234_N239T_YF] | 0.551 |
| TFHNTYHSHMR [IL1RAPL1_Y615_Q618H] | 0.554 |
| KATKGYLDDPT [G6PD_Y322_E317K] | 0.395 |
| ICANKYMVESC [RPL10_Y75_K78E] | 0.53 |
| GHEFIYVDPMQ [PDGFRA_Y574_YF] | 2.6 |
| MSGDVYSTDFF [NTRK2_Y702_R699G_YF] | 4.62 |
| PAEPRYRARQR [KCNJ11_Y26] | 0.958 |
| AKRKNYAPVTM [CFAP47_Y557_A561T] | 0.445 |
| TVNIRYLLFPS [SERAC1_Y548_S543T] | 0.434 |
| ESSKAYERDLS [TTC37_Y1074_A1077D] | 0.402 |
| RLCQDYDTIGP [ANK1_Y1073] | 0.971 |
| ELPQTYCVSGP [DYSF_Y1684_G1679E] | 0.641 |
| RCKNHYAAFSV [C1QTNF1_Y145_S143N] | 0.633 |
| SARFPYLMAEK [LDHB_Y173_R172P] | 0.483 |
| SKDQICPMKLK [RANBP17_Y823_Y823C] | 0.505 |
| LIDGYYRLTAD [JAK2_Y373] | 0.899 |

What follows are sequences tested against EPHB1 (UniProt P54762) in the same assay as above.
Chain of EPHB1 (P54762 whole entry, looked up): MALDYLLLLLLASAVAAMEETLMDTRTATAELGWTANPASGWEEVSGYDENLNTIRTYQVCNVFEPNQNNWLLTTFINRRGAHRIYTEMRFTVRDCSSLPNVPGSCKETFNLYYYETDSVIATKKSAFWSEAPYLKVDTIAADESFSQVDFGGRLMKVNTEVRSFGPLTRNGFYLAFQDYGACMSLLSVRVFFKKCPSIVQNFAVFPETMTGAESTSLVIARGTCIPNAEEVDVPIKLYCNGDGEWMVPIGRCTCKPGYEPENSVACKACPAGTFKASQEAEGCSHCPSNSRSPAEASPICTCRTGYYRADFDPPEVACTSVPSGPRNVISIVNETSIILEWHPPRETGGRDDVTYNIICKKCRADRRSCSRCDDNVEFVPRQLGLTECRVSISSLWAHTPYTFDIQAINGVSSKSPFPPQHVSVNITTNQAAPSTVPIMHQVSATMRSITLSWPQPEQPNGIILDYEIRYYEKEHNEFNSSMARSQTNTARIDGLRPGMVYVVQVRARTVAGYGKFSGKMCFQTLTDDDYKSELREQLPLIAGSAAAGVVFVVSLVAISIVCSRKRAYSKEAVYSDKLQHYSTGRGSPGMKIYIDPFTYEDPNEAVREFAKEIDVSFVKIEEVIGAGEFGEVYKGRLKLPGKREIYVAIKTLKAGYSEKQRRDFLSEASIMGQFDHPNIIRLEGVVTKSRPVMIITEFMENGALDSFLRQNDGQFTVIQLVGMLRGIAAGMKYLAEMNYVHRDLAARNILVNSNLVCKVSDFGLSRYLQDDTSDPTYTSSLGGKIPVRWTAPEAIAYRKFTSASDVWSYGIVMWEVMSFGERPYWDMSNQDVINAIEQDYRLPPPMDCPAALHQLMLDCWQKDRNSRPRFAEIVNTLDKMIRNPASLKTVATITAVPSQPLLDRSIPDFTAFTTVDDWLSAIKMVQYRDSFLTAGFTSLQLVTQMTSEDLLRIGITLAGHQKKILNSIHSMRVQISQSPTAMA

| Sequence | phosphorylation enrichment |
| --- | --- |
| CTTIHYNFMCT [TP53_Y234_N239T_YF] | 0.54 |
| TFHNTYHSHMR [IL1RAPL1_Y615_Q618H] | 0.367 |
| KATKGYLDDPT [G6PD_Y322_E317K] | 0.431 |
| ICANKYMVESC [RPL10_Y75_K78E] | 0.482 |
| GHEFIYVDPMQ [PDGFRA_Y574_YF] | 5.23 |
| MSGDVYSTDFF [NTRK2_Y702_R699G_YF] | 1.02 |
| PAEPRYRARQR [KCNJ11_Y26] | 0.635 |
| AKRKNYAPVTM [CFAP47_Y557_A561T] | 0.365 |
| TVNIRYLLFPS [SERAC1_Y548_S543T] | 0.728 |
| ESSKAYERDLS [TTC37_Y1074_A1077D] | 0.394 |
| RLCQDYDTIGP [ANK1_Y1073] | 2.96 |
| ELPQTYCVSGP [DYSF_Y1684_G1679E] | 0.533 |
| RCKNHYAAFSV [C1QTNF1_Y145_S143N] | 0.286 |
| SARFPYLMAEK [LDHB_Y173_R172P] | 0.373 |
| SKDQICPMKLK [RANBP17_Y823_Y823C] | 0.385 |
| LIDGYYRLTAD [JAK2_Y373] | 1.88 |

The sequences below were run against MERTK (UniProt Q12866) in the same assay as above.
Chain of MERTK (Q12866 whole entry, looked up): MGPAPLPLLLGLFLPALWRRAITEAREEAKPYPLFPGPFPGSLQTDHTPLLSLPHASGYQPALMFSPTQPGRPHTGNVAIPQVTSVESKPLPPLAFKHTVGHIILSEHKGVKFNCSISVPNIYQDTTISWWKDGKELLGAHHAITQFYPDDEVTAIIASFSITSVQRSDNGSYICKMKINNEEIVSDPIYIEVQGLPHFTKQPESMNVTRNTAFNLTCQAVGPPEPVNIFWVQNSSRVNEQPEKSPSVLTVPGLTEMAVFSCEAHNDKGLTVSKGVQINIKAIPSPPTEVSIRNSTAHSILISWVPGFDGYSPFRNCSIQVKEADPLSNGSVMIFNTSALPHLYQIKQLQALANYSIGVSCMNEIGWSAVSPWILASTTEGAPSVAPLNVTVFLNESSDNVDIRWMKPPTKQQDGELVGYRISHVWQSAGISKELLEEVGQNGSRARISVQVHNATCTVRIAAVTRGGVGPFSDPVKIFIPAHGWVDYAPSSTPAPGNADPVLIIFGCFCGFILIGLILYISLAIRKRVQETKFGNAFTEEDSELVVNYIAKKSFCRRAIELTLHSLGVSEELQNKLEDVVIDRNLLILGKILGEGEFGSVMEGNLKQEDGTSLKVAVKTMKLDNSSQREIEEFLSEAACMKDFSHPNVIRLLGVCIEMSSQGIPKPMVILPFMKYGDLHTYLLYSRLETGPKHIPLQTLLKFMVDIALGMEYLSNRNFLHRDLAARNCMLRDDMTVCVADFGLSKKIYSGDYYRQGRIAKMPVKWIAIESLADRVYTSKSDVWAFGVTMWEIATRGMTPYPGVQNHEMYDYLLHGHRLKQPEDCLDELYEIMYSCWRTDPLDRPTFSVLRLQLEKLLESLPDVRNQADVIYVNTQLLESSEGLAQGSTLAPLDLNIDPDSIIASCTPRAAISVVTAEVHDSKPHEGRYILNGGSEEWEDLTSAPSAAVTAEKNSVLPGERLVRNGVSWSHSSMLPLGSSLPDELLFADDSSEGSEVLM

| Sequence | phosphorylation enrichment |
| --- | --- |
| CTTIHYNFMCT [TP53_Y234_N239T_YF] | 0.419 |
| TFHNTYHSHMR [IL1RAPL1_Y615_Q618H] | 0.482 |
| KATKGYLDDPT [G6PD_Y322_E317K] | 0.443 |
| ICANKYMVESC [RPL10_Y75_K78E] | 0.432 |
| GHEFIYVDPMQ [PDGFRA_Y574_YF] | 2.36 |
| MSGDVYSTDFF [NTRK2_Y702_R699G_YF] | 6.82 |
| PAEPRYRARQR [KCNJ11_Y26] | 0.929 |
| AKRKNYAPVTM [CFAP47_Y557_A561T] | 0.431 |
| TVNIRYLLFPS [SERAC1_Y548_S543T] | 0.606 |
| ESSKAYERDLS [TTC37_Y1074_A1077D] | 0.432 |
| RLCQDYDTIGP [ANK1_Y1073] | 0.602 |
| ELPQTYCVSGP [DYSF_Y1684_G1679E] | 0.447 |
| RCKNHYAAFSV [C1QTNF1_Y145_S143N] | 0.572 |
| SARFPYLMAEK [LDHB_Y173_R172P] | 0.325 |
| SKDQICPMKLK [RANBP17_Y823_Y823C] | 0.553 |
| LIDGYYRLTAD [JAK2_Y373] | 0.961 |

Each sequence was assayed against FGFR3 (UniProt P22607) in the same assay as above.
Chain of FGFR3 (P22607 whole entry, looked up): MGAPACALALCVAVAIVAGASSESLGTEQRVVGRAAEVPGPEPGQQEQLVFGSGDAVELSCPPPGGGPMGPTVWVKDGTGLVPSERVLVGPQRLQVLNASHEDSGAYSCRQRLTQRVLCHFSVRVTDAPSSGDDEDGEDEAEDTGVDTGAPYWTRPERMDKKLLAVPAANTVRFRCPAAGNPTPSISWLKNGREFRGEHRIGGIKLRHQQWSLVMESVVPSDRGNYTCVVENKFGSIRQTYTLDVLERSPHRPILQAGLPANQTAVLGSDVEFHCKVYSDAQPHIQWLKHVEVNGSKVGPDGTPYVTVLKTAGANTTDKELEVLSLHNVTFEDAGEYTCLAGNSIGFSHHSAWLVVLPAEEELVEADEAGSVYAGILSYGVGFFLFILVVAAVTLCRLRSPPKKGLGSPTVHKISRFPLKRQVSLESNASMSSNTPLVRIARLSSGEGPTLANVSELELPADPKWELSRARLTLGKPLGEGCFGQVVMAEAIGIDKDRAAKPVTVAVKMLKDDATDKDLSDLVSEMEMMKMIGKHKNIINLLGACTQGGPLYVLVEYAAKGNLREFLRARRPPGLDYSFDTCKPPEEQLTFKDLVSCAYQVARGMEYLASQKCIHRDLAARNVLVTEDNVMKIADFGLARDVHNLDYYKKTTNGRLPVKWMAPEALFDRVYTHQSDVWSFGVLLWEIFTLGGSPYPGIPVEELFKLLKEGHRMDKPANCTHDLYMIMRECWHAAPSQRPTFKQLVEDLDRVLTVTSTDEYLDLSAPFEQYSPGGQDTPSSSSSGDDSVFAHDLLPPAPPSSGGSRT

| Sequence | phosphorylation enrichment |
| --- | --- |
| CTTIHYNFMCT [TP53_Y234_N239T_YF] | 0.752 |
| TFHNTYHSHMR [IL1RAPL1_Y615_Q618H] | 0.424 |
| KATKGYLDDPT [G6PD_Y322_E317K] | 0.484 |
| ICANKYMVESC [RPL10_Y75_K78E] | 0.659 |
| GHEFIYVDPMQ [PDGFRA_Y574_YF] | 7.52 |
| MSGDVYSTDFF [NTRK2_Y702_R699G_YF] | 1.18 |
| PAEPRYRARQR [KCNJ11_Y26] | 0.599 |
| AKRKNYAPVTM [CFAP47_Y557_A561T] | 0.34 |
| TVNIRYLLFPS [SERAC1_Y548_S543T] | 0.829 |
| ESSKAYERDLS [TTC37_Y1074_A1077D] | 0.524 |
| RLCQDYDTIGP [ANK1_Y1073] | 0.976 |
| ELPQTYCVSGP [DYSF_Y1684_G1679E] | 0.594 |
| RCKNHYAAFSV [C1QTNF1_Y145_S143N] | 0.56 |
| SARFPYLMAEK [LDHB_Y173_R172P] | 0.455 |
| SKDQICPMKLK [RANBP17_Y823_Y823C] | 0.643 |
| LIDGYYRLTAD [JAK2_Y373] | 5.24 |

What follows are sequences tested against Jak2 (UniProt O60674) in the same assay as above.
Chain of Jak2 (O60674 whole entry, looked up): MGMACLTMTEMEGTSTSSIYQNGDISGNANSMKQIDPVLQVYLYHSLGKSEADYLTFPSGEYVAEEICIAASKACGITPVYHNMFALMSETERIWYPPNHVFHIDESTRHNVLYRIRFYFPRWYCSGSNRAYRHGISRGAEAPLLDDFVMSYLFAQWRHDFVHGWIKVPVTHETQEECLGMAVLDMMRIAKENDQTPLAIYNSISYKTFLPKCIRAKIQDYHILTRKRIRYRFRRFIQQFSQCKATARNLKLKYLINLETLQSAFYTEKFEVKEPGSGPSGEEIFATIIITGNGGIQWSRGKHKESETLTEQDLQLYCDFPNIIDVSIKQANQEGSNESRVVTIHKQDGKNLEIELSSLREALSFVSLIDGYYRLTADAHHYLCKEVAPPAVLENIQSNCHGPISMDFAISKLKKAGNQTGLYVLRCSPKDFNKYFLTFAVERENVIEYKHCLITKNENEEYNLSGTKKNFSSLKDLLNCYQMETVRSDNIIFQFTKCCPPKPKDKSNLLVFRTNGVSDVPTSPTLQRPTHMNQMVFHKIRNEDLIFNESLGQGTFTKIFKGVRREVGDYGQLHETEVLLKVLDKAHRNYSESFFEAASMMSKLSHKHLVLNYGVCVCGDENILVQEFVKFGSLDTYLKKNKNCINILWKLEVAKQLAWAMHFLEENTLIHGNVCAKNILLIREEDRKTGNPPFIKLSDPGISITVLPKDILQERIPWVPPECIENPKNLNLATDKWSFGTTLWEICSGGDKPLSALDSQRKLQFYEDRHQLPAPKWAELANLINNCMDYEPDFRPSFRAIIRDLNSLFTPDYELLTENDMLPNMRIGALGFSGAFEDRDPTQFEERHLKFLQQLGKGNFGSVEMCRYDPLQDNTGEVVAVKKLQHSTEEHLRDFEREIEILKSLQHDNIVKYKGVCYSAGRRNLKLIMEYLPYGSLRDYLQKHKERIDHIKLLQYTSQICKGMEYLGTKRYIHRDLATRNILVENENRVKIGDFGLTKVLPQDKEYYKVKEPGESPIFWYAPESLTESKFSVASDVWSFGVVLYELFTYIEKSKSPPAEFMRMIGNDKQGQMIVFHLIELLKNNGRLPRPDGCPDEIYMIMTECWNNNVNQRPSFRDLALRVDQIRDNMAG

| Sequence | phosphorylation enrichment |
| --- | --- |
| CTTIHYNFMCT [TP53_Y234_N239T_YF] | 0.997 |
| TFHNTYHSHMR [IL1RAPL1_Y615_Q618H] | 0.725 |
| KATKGYLDDPT [G6PD_Y322_E317K] | 0.755 |
| ICANKYMVESC [RPL10_Y75_K78E] | 0.982 |
| GHEFIYVDPMQ [PDGFRA_Y574_YF] | 0.818 |
| MSGDVYSTDFF [NTRK2_Y702_R699G_YF] | 0.959 |
| PAEPRYRARQR [KCNJ11_Y26] | 1 |
| AKRKNYAPVTM [CFAP47_Y557_A561T] | 0.351 |
| TVNIRYLLFPS [SERAC1_Y548_S543T] | 1.11 |
| ESSKAYERDLS [TTC37_Y1074_A1077D] | 0.499 |
| RLCQDYDTIGP [ANK1_Y1073] | 0.778 |
| ELPQTYCVSGP [DYSF_Y1684_G1679E] | 0.826 |
| RCKNHYAAFSV [C1QTNF1_Y145_S143N] | 0.63 |
| SARFPYLMAEK [LDHB_Y173_R172P] | 0.504 |
| SKDQICPMKLK [RANBP17_Y823_Y823C] | 0.746 |
| LIDGYYRLTAD [JAK2_Y373] | 10.4 |
